Measured values published in patent US20260248940A1, “Antibody-Drug Conjugates and Uses Thereof” (Vivasor, Inc., priority 2023, published 2026).

What was measured:
Hs700T (B7-H3+) cells = test: Cell viability assay (CellTiter-Glo 2.0, 120-hour) in Hs700T cells; type: cell-based; conditions: Homo sapiens, Hs 700T, Table 4A, B7-H3 positive, 120-hour treatment
Calu6 (B7-H3+) cells = test: Cell viability assay (CellTiter-Glo 2.0, 120-hour) in Calu6 cells; type: cell-based; conditions: Homo sapiens, Calu-6; Table 4A; Calu6, B7-H3 positive; 120-hour treatment
U2OS (B7-H3+) cells = test: Cell viability assay (CellTiter-Glo 2.0, 120-hour) in U2OS cells; type: cell-based; conditions: Homo sapiens, Table 4A, B7-H3 positive, 120-hour treatment
PA-1 (B7-H3+) cells = test: Cell viability assay (CellTiter-Glo 2.0, 120-hour) in PA-1 cells; type: cell-based; conditions: Homo sapiens; Table 4A; PA-1, B7-H3 positive; 120-hour treatment
NCI-H929 (B7-H3−) cells = test: Cell viability assay (CellTiter-Glo 2.0, 120-hour) in NCI-H929 cells; type: cell-based; conditions: Homo sapiens; Table 4A; NCI-H929, B7-H3 negative; 120-hour treatment
human B7-H3 protein [1] = molecular target: T1, human B7-H3 protein (human, UniProt Q5ZPR3 29-534); test: flow cytometry on A549 cells, PE-labelled goat anti-human secondary antibody, geometric mean fluorescence
T1 construct: Endogenous B7-H3 on human cancer cell lines; also called CD276; B7-H3 receptor
T1 sequence: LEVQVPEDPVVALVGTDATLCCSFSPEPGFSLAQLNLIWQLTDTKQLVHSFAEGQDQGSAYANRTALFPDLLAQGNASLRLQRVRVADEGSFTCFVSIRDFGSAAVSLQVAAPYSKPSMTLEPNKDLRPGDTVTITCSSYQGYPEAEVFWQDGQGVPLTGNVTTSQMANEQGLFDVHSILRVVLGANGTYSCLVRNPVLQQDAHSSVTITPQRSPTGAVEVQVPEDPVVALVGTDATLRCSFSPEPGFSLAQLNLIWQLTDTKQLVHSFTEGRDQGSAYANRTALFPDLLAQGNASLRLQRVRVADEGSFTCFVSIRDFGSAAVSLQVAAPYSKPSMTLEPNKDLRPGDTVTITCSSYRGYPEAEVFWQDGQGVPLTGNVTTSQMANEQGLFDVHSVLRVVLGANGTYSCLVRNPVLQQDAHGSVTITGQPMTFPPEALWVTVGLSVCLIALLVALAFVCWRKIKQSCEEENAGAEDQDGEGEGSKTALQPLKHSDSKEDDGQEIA
Protocol: (§1) B7-H3 binding: Tumor cell cultures were harvested by non-enzymatic cell dissociation and plated in RPMI1640 supplemented with 10% fetal bovine serum (FBS) in a 96 well plate. A dilution curve of B7H3 antibody was prepared as a 2× solution and added to each well and incubated at 4C for 1 hour. The cells were washed with PBS+2% FBS+5 mM EDTA (FACS Buffer) before incubation with R-Phycoerythrin labeled goat anti-human secondary antibody for 1 hour at 4C. Cells were washed with FACS buffer and analyzed by flow cytometry.

human B7-H3 protein [2] = molecular target: T1, human B7-H3 protein; test: flow cytometry on FaDu cells, PE-labelled goat anti-human secondary antibody, geometric mean fluorescence
Protocol: as §1

human B7-H3 protein [3] = molecular target: T1, human B7-H3 protein; test: flow cytometry on U2OS cells, PE-labelled goat anti-human secondary antibody, geometric mean fluorescence
Protocol: as §1

human B7-H3 protein [4] = molecular target: T1, human B7-H3 protein; test: flow cytometry on Hs700T cells, PE-labelled goat anti-human secondary antibody, geometric mean fluorescence
Protocol: as §1

human B7-H3 protein [5] = molecular target: T1, human B7-H3 protein; test: flow cytometry on HCT-116 cells, PE-labelled goat anti-human secondary antibody, geometric mean fluorescence
Protocol: as §1

human B7-H3 protein [6] = molecular target: T1, human B7-H3 protein; test: flow cytometry on SkNBE(2) cells, PE-labelled goat anti-human secondary antibody, geometric mean fluorescence
Protocol: as §1

human B7-H3 protein [7] = molecular target: T1, human B7-H3 protein; test: flow cytometry on MDA-MB-231 cells, PE-labelled goat anti-human secondary antibody, geometric mean fluorescence
Protocol: as §1

[8] = test system: B7-H3-expressing renal cell and bladder carcinoma; conditions: Loo et al., 2012; cited from earlier work
[9] = cynomolgus monkeys; Loo et al., 2012; cited from earlier work

CC[C@@]1(O)C(=O)OCc2c1cc1n(c2=O)Cc2c-1nc1cc(F)c(C)c3c1c2[C@@H](NC(=O)CO)CC3 [Dxd]
EC50 (Hs700T (B7-H3+) cells): 43.9 nM
EC50 (Calu6 (B7-H3+) cells): 7 nM
EC50 (U2OS (B7-H3+) cells): 337 nM
EC50 (PA-1 (B7-H3+) cells): 2 nM
EC50 (NCI-H929 (B7-H3−) cells): 4.7 nM

B1: anti-B7-H3 antibody (B7-H3 VA clone) (antibody, V domains shown)
VH: QVQLVQSGAEVKKPGASVKVSCKASGYTFTDSYMHWVRQAPGQGLEWMGWISPRTGGTDYAQKFQGRVTMTRDTSISTAYMELSRLRSDDTAVYYCARGSSRGNDYWGQGTLVTVSS
VL: QSVLTQPASVSGSPGQSITISCTGTGSDVGGYNYVSWYQQHPGKAPKLIIYDVTKRPSGFSNRFSGSKSGNTASLTISGLQAEDEADYYCSSYTSRRTYVFGTGTKLTVL
notes: IgG/IgG1 appears only as an embodiment; It was detected with a goat anti-human secondary antibody; also called anti-B7H3 VA clone; Sorrento's VA clone
Kd (human B7-H3 protein [1]): 0.192 nM
EC50 (read off the curve) (human B7-H3 protein [2]): ~0.2 nM
Kd (human B7-H3 protein [2]): 0.2 nM
EC50 (read off the curve) (human B7-H3 protein [3]): ~0.3 nM
Kd (human B7-H3 protein [3]): 0.257 nM
EC50 (read off the curve) (human B7-H3 protein [4]): ~0.5 nM
Kd (human B7-H3 protein [4]): 0.485 nM
Kd (human B7-H3 protein [5]): 0.238 nM
Kd (human B7-H3 protein [6]): 0.0968 nM
Kd (human B7-H3 protein [7]): 0.168 nM

B2: Enoblituzumab (antibody, chains of the INN, looked up)
heavy: EVQLVESGGGLVQPGGSLRLSCAASGFTFSSFGMHWVRQAPGKGLEWVAYISSDSSAIYYADTVKGRFTISRDNAKNSLYLQMNSLRDEDTAVYYCGRGRENIYYGSRLDYWGQGTTVTVSSASTKGPSVFPLAPSSKSTSGGTAALGCLVKDYFPEPVTVSWNSGALTSGVHTFPAVLQSSGLYSLSSVVTVPSSSLGTQTYICNVNHKPSNTKVDKRVEPKSCDKTHTCPPCPAPELVGGPSVFLLPPKPKDTLMISRTPEVTCVVVDVSHEDPEVKFNWYVDGVEVHNAKTKPPEEQYNSTLRVVSVLTVLHQDWLNGKEYKCKVSNKALPAPIEKTISKAKGQPREPQVYTLPPSREEMTKNQVSLTCLVKGFYPSDIAVEWESNGQPENNYKTTPLVLDSDGSFFLYSKLTVDKSRWQQGNVFSCSVMHEALHNHYTQKSLSLSPG
light: DIQLTQSPSFLSASVGDRVTITCKASQNVDTNVAWYQQKPGKAPKALIYSASYRYSGVPSRFSGSGSGTDFTLTISSLQPEDFATYYCQQYNNYPFTFGQGTKLEIKRTVAAPSVFIFPPSDEQLKSGTASVVCLLNNFYPREAKVQWKVDNALQSGNSQESVTEQDSKDSTYSLSSTLTLSKADYEKHKVYACEVTHQGLSSPVTKSFNRGEC
notes: "Enoblituzumab (MGA271; from Macrogenics), a humanized mAb targeting B7-H3"
antitumor activity in xenograft models [8]: potent antitumor activity
safety findings in toxicology studies [9]: no significant safety findings
